Molecular target: FGFR1 D2-D3 (residues 142-365 of human FGFR1) (human) (UniProt P11362)
Assay: calculated from the X-ray crystal structure

FGFR1 D2-D3 (residues 142-365 of human FGFR1) (human), sequence (P11362 149-359 limits assumed): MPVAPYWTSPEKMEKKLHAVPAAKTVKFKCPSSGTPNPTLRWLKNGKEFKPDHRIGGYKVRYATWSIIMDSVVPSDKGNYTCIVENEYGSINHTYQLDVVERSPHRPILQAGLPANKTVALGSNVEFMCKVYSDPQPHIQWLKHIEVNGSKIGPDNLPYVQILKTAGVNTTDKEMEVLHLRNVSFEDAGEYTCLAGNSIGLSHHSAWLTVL

total accessible surface area buried in the complex: 2200 Å^2
Substance: FGF1 (from UniProt P05230 21-155) (ligand)
